Results: article PMC5600424, “An efficient method for the preparation of preferentially heterodimerized recombinant S100A8/A9 coexpressed in Escherichia coli” (Biochemistry and Biophysics Reports, 2016)
One block for each binder: values may come before it.

How the values were obtained:
Test in all cases: SEC; SEC-HPLC (COSMOSIL 5Diol-300-II), 50 mM sodium phosphate buffer pH 6.0, 1.0 mL/min, 30 ug of cation-exchange peak fraction injected; mass estimated with a gel filtration calibration kit
[1] = biological target: T1, human S100A9 (human), P06702; details: remark: other sources report otherwise
T1 chain: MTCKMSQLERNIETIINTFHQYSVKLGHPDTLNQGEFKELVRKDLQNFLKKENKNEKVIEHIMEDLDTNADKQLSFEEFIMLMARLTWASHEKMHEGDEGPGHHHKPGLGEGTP

[2] = biological target: the molecule itself
[3] = biological target: T2, human S100A9 (human, UniProt P06702 1-114); details: both partners purified
T2 construct: human S100A9, UniProt P06702; codon-optimised synthetic gene in pET21a (NdeI/BamHI), expressed without any tags; also called MRP-14
T2 sequence (looked up): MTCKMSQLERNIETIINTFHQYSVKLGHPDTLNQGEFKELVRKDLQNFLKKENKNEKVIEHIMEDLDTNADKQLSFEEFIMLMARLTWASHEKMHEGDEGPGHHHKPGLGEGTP

stoichiometry N [1]: 2
B1: human S100A9, P06702 1-114 (natural protein)
chain: MTCKMSQLERNIETIINTFHQYSVKLGHPDTLNQGEFKELVRKDLQNFLKKENKNEKVIEHIMEDLDTNADKQLSFEEFIMLMARLTWASHEKMHEGDEGPGHHHKPGLGEGTP

B2: S100A8/A9 heterodimer (complex, human)
chain 1: MLTELEKALNSIIDVYHKYSLIKGNFHAVYRDDLKKLLETECPQYIRKKGADVWFKELDINTDGAVNFQEFLILVIKMGVAAHKKSHEESHKE
chain 2: MTCKMSQLERNIETIINTFHQYSVKLGHPDTLNQGEFKELVRKDLQNFLKKENKNEKVIEHIMEDLDTNADKQLSFEEFIMLMARLTWASHEKMHEGDEGPGHHHKPGLGEGTP
notes: human S100A8, UniProt P05109; as the chain of m1; no tags; human S100A9, UniProt P06702; as the chain of m2; Heterodimer formed during coexpression; used here only for its own association to a higher complex; also called MRP-8/14; calprotectin; source: E. coli T7 Express, coexpressed from pET21-S100A8-S100A9, purified (cation-exchange chromatography, Peak 1)
binding result [2]: binds

binding result [3]: binds
B3: human S100A8 (natural protein, UniProt P05109 1-93, looked up)
chain: MLTELEKALNSIIDVYHKYSLIKGNFHAVYRDDLKKLLETECPQYIRKKGADVWFKELDINTDGAVNFQEFLILVIKMGVAAHKKSHEESHKE
notes: human S100A8, UniProt P05109; codon-optimised synthetic gene in pET21a (NdeI/BamHI), expressed without any tags; also called MRP-8
stoichiometry N [2]: 2
